Reference: the nanobody polyreactivity screen of Harvey et al. (2022)

Experiment: yeast display, Sf9 membrane polyspecificity reagent, FACS + sequencing; frameworks hold sequencing errors
Summary of the method: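 Galactose induction of a Saccharomyces cerevisiae BJ5465 synthetic nanobody display library ran 36–48 hours. The cells were then stained for 1 hour at 4 °C with 10% biotinylated, detergent-solubilized Sf9 membrane reagent, pulled down on streptavidin microbeads and FACS-sorted into low and high (top ~1%) gates on expression and reagent-binding fluorescence. Labels for polyreactivity follow the gate of origin.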
In the case of “QVQLVESGGGLVQAGGSLRLSCAASGSIVGSYAMGWYRQAPGKERELVAGIRSGGSTYYADSVKGRFTISRDNAKNTVYLQMNSLKPEDTAVYYCAGHEEYWGHGTQVTVSS”, the “polyreactivity (PSR sort gate)” value is reported as “low polyreactivity”.
With “QVQLVESGGGLVQAGGSLRLSCAASGRTFNWYAMGWYRQAPGKERELVAAISYSGGGTYYADSVKGRFTISRDNAKNTVYLQMNSLKPEDTAVYYCAAETYYAPYVYWGQGTQVTVSS” the “polyreactivity (PSR sort gate)” value was “high polyreactivity”.
In the case of “QVQLVESGGRLVQAGGSLRLSCAASGRIFSRNAMGWYRQAPGKERELVAGISARGGRTYYADSVKGRFTISRDNAKNTVYLQMNSLKPEDTAVYYCAASFSAIRGGVRVTIDYYWGQGTQVTVSS”, the “polyreactivity (PSR sort gate)” value is reported as “high polyreactivity”.
For “QVQLVESGGGLVQAGVSLRLSCAASGRTFIGNAMGWYRQAPGKEREFVAAISRRGGSTYYADSVKGRFTISRDNAKNTVYLQMNSLKPEDTAVYYCAAGQTTTGILTYYYWGQGTQVTVSS”, the “polyreactivity (PSR sort gate)” value was “high polyreactivity”.
For “QVQLVESGGGLVQAGGSLRLSCAASGRIFDDYAMGRYRQAPGKERELVAAISWSGGSTYYADSVKGRFTISRDNAKNTVYLQMNSQKPVDTAVYYCSAPYHSYKRIGYDYWGQGTQVSVSS”, the “polyreactivity (PSR sort gate)” value was “low polyreactivity”.
With “QVQLVESGGGLVQAGGSLRLSCAASGSTFYPYDMGWYRQAPGKERELVATMTSTGGSTNYADSVKGRFTISRDNAKNTVYLQMNSLKPEDTAVYYCAKDWNDDQHSWDTPFDYWGQGTQVTVSS” the “polyreactivity (PSR sort gate)” value was “low polyreactivity”.
In the case of “QVQLVESGGGLVQAGGSLRLSCAASGGIFGYYAMGWYRQAPGKERELVAAISSSGGSTYYADSVKGRFTISRDNAKNTVYLQMNSLKPEDTAVYYCAAYRKVGGFSRGDYWGQGTQVTVSS”, the “polyreactivity (PSR sort gate)” value is reported as “high polyreactivity”.
In the case of “QVQLVESGGGLVQAGGSLRLSCGGSGSTFYVNAMGWYRQAPGKEREFVAAITWNSGSTYYADSVKGRFTISRDNAKNTVYLQMHSLKPEDTAVYYCAAVLSVRVYGYDYWGQGTQVTVSS”, the “polyreactivity (PSR sort gate)” value is reported as “low polyreactivity”.
For “QVQLVESGGGLVQAGGSLRLSCAASGRTFDGYAMGWYSQAPGKERELVAALSSRSGRTYYADSVKGRFTISRDNAKNTVYLQMNSLKPEDTAGYYCAAVNKPRSEDYGYWGQGTQVTVSS”, the “polyreactivity (PSR sort gate)” value was “high polyreactivity”.
In the case of “QVQLVESGGGLVQAGGSLGLSCAASGSIFSDYAMGWYRQATGKERELVAAITQSGGSTYADSVKGRFTISRDNAKNTVYLQMISLKPEDTAVYYCAADEVPGFGYPPYPWFDYWGQGTQVTVSS”, the “polyreactivity (PSR sort gate)” value is reported as “low polyreactivity”.
In the case of “QVQLVESGGGIVQAGGSLRLSCAASGGIFDSYAMGWYRQAPGKERELVADITSGGSTNYADSVKGRFTISRDNAKNTVYLQMNSLKPEDTAVYYCAKEFYYSVGVNLGDSWGQGIQVTVSS”, the “polyreactivity (PSR sort gate)” value is reported as “low polyreactivity”.
In the case of “QVQLVESGGGLVQAGGSLRLSCAASGRTFFVYTMGWYRQAPGKERELVAAITSDTSTTYADSVKGRFTISRDNAKNTVYLQMNSLKPEDTAVYYCAAEGYVGYYDYDYWGQGTQVTVSS”, the “polyreactivity (PSR sort gate)” value is reported as “low polyreactivity”.
With “QVQLVESGGGLVQAGGSLRLSCAASGNTFFRYAMGWYRQAPGKERELVAAISKSGGSTYYADSVKGRFTISRDNAKNTVYLQMNSLKPEDTAVYYCAAYSPYGRYDYWGQGTQVTVSS” the “polyreactivity (PSR sort gate)” value was “high polyreactivity”.
With “QVQLLESGGGLVQAGGSLRLSCAASGIIFCEYAMGWYTQAPGKERELVATITSGDSTNYADSVKGRFTISRDNAKNTVYLQMNSLKPEDTAVYYCIADYAFLPSYDYWGQGTQVTVSS” the “polyreactivity (PSR sort gate)” value was “low polyreactivity”.
With “QVQLVESGGGLVQAGGSLRLSCAASGYIFYFYAMGWYRQAPGKERELVAAISSSGGSTRYADSVKGRFTISRDNAKNTVYLQMNSLKPEDTAVYYCAASHWSGAAWYYYWGQGTQVTVSS” the “polyreactivity (PSR sort gate)” value was “high polyreactivity”.
For “QVQLVESGGGLVQAGGSLRLSCAASGFIFWLYAMGWSRQAPGKERELVASINWSGGDTYYADSVKGRFTISRDKAKNTVYLQMNSLKPEDTAVYYCAARYWSIYDYWGQGTQVTVSS”, the “polyreactivity (PSR sort gate)” value was “low polyreactivity”.
For “QVQLVESGGGLVQAGGSLRLSCAASGSIFYPYAMGWYRQAPGKERELVATISSGGRTNYADSVKGRFTISRDNAKNTVYLQMNSLKPEDTAVYYCAKDRYPTSWWFRRRDYWGQGTQVTVSS”, the “polyreactivity (PSR sort gate)” value was “high polyreactivity”.
In the case of “QVQLVESGGGLGQAGGSLRLSCAASGRTFRLYAMGCYRQAPGKERELVASITSTGRTYYADSVKGRFTISRDNAKNTVYLQMNSLKPEDTAVYYCNAVALSNCEYDYWGQGTQVTVSS”, the “polyreactivity (PSR sort gate)” value is reported as “high polyreactivity”.
With “QVQLVESGGGLVQAGGSLRLSCAASGRIFYAYAMGLYRQAPGKERELVAAITWSGGSTYYADSVKGRFTISRDNAKNTVYLQMNSLKQEDTAVYYCAADLRVKYVHTYSYVWYRYDYWGQGTQVTVSS” the “polyreactivity (PSR sort gate)” value was “high polyreactivity”.
For “QVQLVESGGGLVQAGGSLRLSCAASGFIFLRYVMGWYRQAPGKERELVAVITGTGVRTYADSVKGRFTISRDNAKNTVYLQMTSLKPEDTAVYYCAVVSSSREVEVLDFDYWGLGTQVTVSS”, the “polyreactivity (PSR sort gate)” value was “low polyreactivity”.
In the case of “QVQLVESGGGLVQAGGSLRLSCAASGSIFPYNAMGWYRQAPGKERELVAAITQSGGSTYYADSVKGRFTISRDNAKNTVYLQMNSLQPEDTAVYYCAADDYGPEGDYWGQGTQVTVSS”, the “polyreactivity (PSR sort gate)” value is reported as “low polyreactivity”.
For “QVQLVETGGGLVQAGGSLRLSCAASGIIFPFYAMGWYRQAPGKERELVAAITSDGNTNYADSVKGRFTISRDNAKNTVYLQMNSLKPEDTAVYYCNAETQYGVLSWHSTRHDYWGQGTQVTVSS”, the “polyreactivity (PSR sort gate)” value was “low polyreactivity”.
With “QVQLVESGGGLVQAGGSLRLSCAASGRTLWIYAMGWYRQAPGKERELVASITTRGGSTYYADSVKGRFTISRDNAKNTVYLQMNSLKPEDTAVYYCAAEGYTYYTYYPHDYWGQGTQVTVSS” the “polyreactivity (PSR sort gate)” value was “high polyreactivity”.
In the case of “QVQLVESGGGLFQAGGSLRLSCAASGRIFGYNAMAGYRQAPGKERELVAVITYSGGSTYYADSVKGRFTISRDNAKNTVYLQMKSLKPEDTAVYYCIARPIDRYSGSGKQWPDYNYWGQGTQFTVSS”, the “polyreactivity (PSR sort gate)” value is reported as “low polyreactivity”.
In the case of “QVQLVESGGGLVQAGGSLRLSCADSGSIFLPYAMGCYRKAPGKERELVAAITWGGDSTYADSVKGRFTISRDNAKNTVYLQMNSQKPEDTAVYYCAAGAGFESDYWGQGTQVTVSS”, the “polyreactivity (PSR sort gate)” value is reported as “low polyreactivity”.
For “QVQLVESGGGLVQAGGSLRLSCAASGRIFLKYAMGWYRQAPGKERELVAAISRRGASTYYADSVKGRFTISRDNSKNTVYLQMNSLKPEDTAVYYCKARTSSGMDYWGQGTQVTVSS”, the “polyreactivity (PSR sort gate)” value was “high polyreactivity”.
In the case of “QVQVVESGGGILQAGGSLRLSCAASGSIFYTNAMGWYRQAPGKERELVAAINLRDTGTYYADSVKGRFTISRDNAKNTVYLQMNSLNPDDTAVYYCAVDVYSRRTRIRYDSWGHGTQVTVSS”, the “polyreactivity (PSR sort gate)” value is reported as “low polyreactivity”.
For “QVQLVESGGGLVQAGGSLRLICAASGRTFVPYAMGWYRQAPGKERELVAAISQSGGRTYYTDSVKGRFTISRDNAKNTVYLQMNSLKPEDTAVYYCAKRYIYRYVWGGGDYWGQGTQVTVSS”, the “polyreactivity (PSR sort gate)” value was “high polyreactivity”.
In the case of “QVQLVESGRGLVQAGCSLRLSCPASGIIFTTYDMGWYRQAPGKERELVAAISSSTTNTYYADSVKWRFTISRDNAMNTVYLQMNSLKPEETAVYYCAAPYKSNAGFDYWGQGTQVTVSS”, the “polyreactivity (PSR sort gate)” value is reported as “low polyreactivity”.
With “QVQLVESGGGLVQAGGSPRLSCAASGRTFRSNAMGWYRQAPGKERELVAAISWSGGSTYYADSVKGRFTISRDNAKNTVYLQLNSLKPEDTAVYYCAAGSYWSPYGQSFWPKYDYWGQGSQVTVSS” the “polyreactivity (PSR sort gate)” value was “high polyreactivity”.
In the case of “QVHLVESGGGLVQAGGSLLLSCAASGSIFYFYAMGWYRQAPGKERELVAGITWRGGRTYYADSVKGRFTISRDNAKNTVDLQMIILKPEDTAVYYCAARFWSTYGYDSWGQGTQVTVSS”, the “polyreactivity (PSR sort gate)” value is reported as “high polyreactivity”.
For “QVQLVESGGGLVQAGGSLRLSCAASGFIFTWYAMGWYRQAPGKEREVVAGISRSGGRTYYADSVKGRFTISRDNAKNTVYLQMNSLKPEDTAVYYCNAVLVGYRPYREFDHWGQGTQVTVSS”, the “polyreactivity (PSR sort gate)” value was “high polyreactivity”.
With “QVQLVESGGGLVQAGGSLRLSCAASGLIFSYYTMGWYRQAPGKERELVAAISSAGGSTYYADSVKGRFTISRDNAKNTVYLQMNSLKPEDTAVYYCAARYSGRPYGPPGYLWKDYYWGQGTQVTVSS” the “polyreactivity (PSR sort gate)” value was “high polyreactivity”.
With “QVQLVESGGGLVQAGGSLRLSCAASGSIFWSNARGWYRQAPGKERELVATIDDDVGSTYYADSVKGRFTISRDNAKNTVYLQMNSLKPEDTAVYYCAADSVYYVMPYEYWGQGTQVTVSS” the “polyreactivity (PSR sort gate)” value was “low polyreactivity”.
In the case of “QVQLVESGGGLVQAGGSLRLSCAASGRTYVSYAMGWYRQAPGKERELVATITGSTGGTYYADSVKGRFTISRDHAKNTVYLQMNSLKPEDTAVYYCNKDYYYNPGNVASGYDYWGQGTQVTVSS”, the “polyreactivity (PSR sort gate)” value is reported as “low polyreactivity”.
In the case of “QVQLVESGGGLVQAGGSLGLSCAASGFTVYRYAMGWSRQAPGKERELVARTYYADSVKRRFTISRDNAKNTVYLQMNSLKPEDTAVYYCNIDLELEYRYEYWGQGTQVTVSS”, the “polyreactivity (PSR sort gate)” value is reported as “low polyreactivity”.
With “QVQLVESGGGLVQAGGSLRLSCAASGSIFEGNGMGWYRPAPGKERELVAAITFRSGSTYYADSVKGRFTISRDNAKNTVYLQMNSLKPEDTAVYYCAADEYYQVSAYDYWGQGTQVTVSS” the “polyreactivity (PSR sort gate)” value was “low polyreactivity”.
With “QVQLVESGGGLVQAGGSLRLSCAASGRTFSRYAMGWYRQAPGKERELVAAISWSGGTTHYADSVKGRFTISRDNAKNTVYLQMNSLKPEDTAVYYCNKLRQIEFWGQGTQVTVSS” the “polyreactivity (PSR sort gate)” value was “high polyreactivity”.
In the case of “QVQLVESGGGLVQAGGSLRLSCAASGRIFSVYVMGWYRPAPGKERELVAAISGRDGTTYYADSVKGRFTISRDNAKNTVYLQMNSLKPEDTAVYYCAAEDIDFTPMDYWGQGTQVTVSS”, the “polyreactivity (PSR sort gate)” value is reported as “high polyreactivity”.
In the case of “QVQLVESGGRLVQAGGSLRLSCAASGYIFKTNVMGWYRQAPGKEREMVAAISWSGGRTYYADSVKGRFTISRDYGKNCVYLQMNSLKPEDTSVYYFAAVGRQSIYFVDYDFWGQGTQVTVSS”, the “polyreactivity (PSR sort gate)” value is reported as “high polyreactivity”.
For “QVQLVESGGGLVQAGGSLRLSCAASGRTFYRYAMGWYRQAPGKERELVAVITSGSRTKYADSVKGRFTISRDNAKNTVYLQMNSLKPEDTAVYYCNAYGVRYRQAFVRYNYWGQGTQVTVSS”, the “polyreactivity (PSR sort gate)” value was “high polyreactivity”.
